Kd data for four molecules are collected here from paper PMC2932838 (Biochemistry, 2010).

Like-named read-outs stand apart in the source and are kept apart here.

For assay [1], the target named is Fibrin made from surface-adsorbed or chip-immobilized human fibrinogen by thrombin (most probably monomeric) (human) (UniProt P02679). Briefly: ELISA. Background: ELISA stands for enzyme-linked immunosorbent assay.
Assay [2] has as its target Recombinant Aα392–610 fragment (human fibrinogen αC-domain) (human). Nature of the assay: ELISA.
The target in assay [3] is Recombinant Aα504–610 fragment (C-terminal sub-domain of the αC-domain) (human). Briefly: ELISA.
Assay [4] addresses T1, Plasminogen-depleted human fibrinogen (human, UniProt P02671-2 36-644; P02675 45-491; P02679 27-453). Nature of the assay: ELISA.
Assay [5] deals with Fibrin made from surface-adsorbed or chip-immobilized human fibrinogen by thrombin (most probably monomeric) (human) (UniProt P02679). Briefly: ELISA. This is another data set of the same source.
The target in assay [6] is Recombinant Aα392–610 fragment (human fibrinogen αC-domain) (human). Nature of the assay: ELISA. This is another data set of the same source.
Assay [7] concerns the target Fibrin made from surface-adsorbed or chip-immobilized human fibrinogen by thrombin (most probably monomeric) (human) (UniProt P02679). Briefly: ELISA. This is another data set of the same source.
Assay [8] deals with Recombinant Aα392–610 fragment (human fibrinogen αC-domain) (human). Briefly: ELISA. The source holds these as a separate data set.
The target in assay [9] is Fibrin made from surface-adsorbed or chip-immobilized human fibrinogen by thrombin (most probably monomeric) (human) (UniProt P02679). Nature of the assay: ELISA. The source holds these as a separate data set.
Assay [10] concerns the target Recombinant Aα221–610 fragment (human fibrinogen αC region) (human). Briefly: ELISA.
The target of assay [11] is Recombinant Aα504–610 fragment (C-terminal sub-domain of the αC-domain) (human). Nature of the assay: ELISA. The source holds these as a separate data set.
Assay [12] deals with T1, Plasminogen-depleted human fibrinogen. Nature of the assay: ELISA. The source holds these as a separate data set.
The target of assay [13] is Fibrinogen D1 fragment (human). Briefly: ELISA.
In assay [14] the target is Fibrinogen D1 fragment (human). Briefly: ELISA. The source holds these as a separate data set.
Assay [15] addresses Polymeric fibrin (cross-linked fibrin oligomers/polymers prepared on the sensor chip) (human) (UniProt P02679). Nature of the assay: SPR.
The target is the same in assay [16]. Briefly: SPR. The source holds these as a separate data set. For orientation: SPR reads the build-up and loss of mass on a sensor chip optically.
Assay [17] concerns the target T2, Human α2-antiplasmin, Asn-α2-AP form (human, UniProt P08697 40-491).
T2 sequence (looked up): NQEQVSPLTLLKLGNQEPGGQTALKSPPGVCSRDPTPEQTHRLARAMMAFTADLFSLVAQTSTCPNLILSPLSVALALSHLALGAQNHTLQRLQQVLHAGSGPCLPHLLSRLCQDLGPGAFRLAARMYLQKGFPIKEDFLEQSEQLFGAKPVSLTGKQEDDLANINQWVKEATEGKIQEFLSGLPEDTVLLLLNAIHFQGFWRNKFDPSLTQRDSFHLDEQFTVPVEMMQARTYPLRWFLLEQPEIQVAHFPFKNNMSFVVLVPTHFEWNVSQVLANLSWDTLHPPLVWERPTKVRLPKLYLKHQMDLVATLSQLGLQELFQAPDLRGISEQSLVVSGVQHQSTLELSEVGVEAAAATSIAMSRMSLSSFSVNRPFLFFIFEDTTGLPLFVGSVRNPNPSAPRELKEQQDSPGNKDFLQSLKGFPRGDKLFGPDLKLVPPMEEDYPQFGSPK
Briefly: SPR.

B1: Biotinylated human α2-antiplasmin (Asn-α2-AP form) (natural protein, UniProt P08697 40-491, looked up)
chain: NQEQVSPLTLLKLGNQEPGGQTALKSPPGVCSRDPTPEQTHRLARAMMAFTADLFSLVAQTSTCPNLILSPLSVALALSHLALGAQNHTLQRLQQVLHAGSGPCLPHLLSRLCQDLGPGAFRLAARMYLQKGFPIKEDFLEQSEQLFGAKPVSLTGKQEDDLANINQWVKEATEGKIQEFLSGLPEDTVLLLLNAIHFQGFWRNKFDPSLTQRDSFHLDEQFTVPVEMMQARTYPLRWFLLEQPEIQVAHFPFKNNMSFVVLVPTHFEWNVSQVLANLSWDTLHPPLVWERPTKVRLPKLYLKHQMDLVATLSQLGLQELFQAPDLRGISEQSLVVSGVQHQSTLELSEVGVEAAAATSIAMSRMSLSSFSVNRPFLFFIFEDTTGLPLFVGSVRNPNPSAPRELKEQQDSPGNKDFLQSLKGFPRGDKLFGPDLKLVPPMEEDYPQFGSPK
modifications: biotin (EZ-Link Sulfo-NHS-Biotinylation Kit), sites not stated
Usually Kd stands for the concentration at which binding is half-saturated. Consider B1, for which the Kd in assay [1] turned out to be 101 nM; in assay [2] it was 141 nM; in [3], 130 nM; in assay [4], 102 nM; in [5], 109 nM; in [6] it was 157 nM. For the same molecule, the Kd was determined as 25 nM in assay [7]; 111 nM in assay [8]; 102 nM in [9]; 131 nM in [10]; 123 nM in assay [11]; 179 nM in [12].

B2: Biotinylated human α2-antiplasmin (Asn-α2-AP form), P08697 40-491 (natural protein)
chain: NQEQVSPLTLLKLGNQEPGGQTALKSPPGVCSRDPTPEQTHRLARAMMAFTADLFSLVAQTSTCPNLILSPLSVALALSHLALGAQNHTLQRLQQVLHAGSGPCLPHLLSRLCQDLGPGAFRLAARMYLQKGFPIKEDFLEQSEQLFGAKPVSLTGKQEDDLANINQWVKEATEGKIQEFLSGLPEDTVLLLLNAIHFQGFWRNKFDPSLTQRDSFHLDEQFTVPVEMMQARTYPLRWFLLEQPEIQVAHFPFKNNMSFVVLVPTHFEWNVSQVLANLSWDTLHPPLVWERPTKVRLPKLYLKHQMDLVATLSQLGLQELFQAPDLRGISEQSLVVSGVQHQSTLELSEVGVEAAAATSIAMSRMSLSSFSVNRPFLFFIFEDTTGLPLFVGSVRNPNPSAPRELKEQQDSPGNKDFLQSLKGFPRGDKLFGPDLKLVPPMEEDYPQFGSPK
modifications: here or on the partner: biotin (EZ-Link Sulfo-NHS-Biotinylation Kit), sites not stated
For the molecule B2, the Kd stood at 165 nM in [13] and 197 nM in assay [14].

B3: Human α2-antiplasmin, Asn-α2-AP form (natural protein)
chain: NQEQVSPLTLLKLGNQEPGGQTALKSPPGVCSRDPTPEQTHRLARAMMAFTADLFSLVAQTSTCPNLILSPLSVALALSHLALGAQNHTLQRLQQVLHAGSGPCLPHLLSRLCQDLGPGAFRLAARMYLQKGFPIKEDFLEQSEQLFGAKPVSLTGKQEDDLANINQWVKEATEGKIQEFLSGLPEDTVLLLLNAIHFQGFWRNKFDPSLTQRDSFHLDEQFTVPVEMMQARTYPLRWFLLEQPEIQVAHFPFKNNMSFVVLVPTHFEWNVSQVLANLSWDTLHPPLVWERPTKVRLPKLYLKHQMDLVATLSQLGLQELFQAPDLRGISEQSLVVSGVQHQSTLELSEVGVEAAAATSIAMSRMSLSSFSVNRPFLFFIFEDTTGLPLFVGSVRNPNPSAPRELKEQQDSPGNKDFLQSLKGFPRGDKLFGPDLKLVPPMEEDYPQFGSPK
Take B3: the Kd stood at 68 nM in assay [15] and 45 nM in assay [16].

B4: Fibrin-derived D-D:E complex (complex)
chain 1: VSEDLRSRIEVLKRKVIEKVQHIQLLQKNVRAQLVDMKRLEVDIDIKIRSCRGSCSRALAREVDLKDYEDQQKQLEQVIAKDLLPSR
chain 2: DNENVVNEYSSELEKHQLYIDETVNSNIPTNLRVLRSILENLRSKIQKLESDVSAQMEYCRTPCTVSCNIPVVSGKECEEIIRKGGETSEMYLIQPDSSVKPYRVYCDMNTENGGWTVIQNRQDGSVDFGRKWDPYKQGFGNVATNTDGKNYCGLPGEYWLGNDKISQLTRMGPTELLIEMEDWKGDKVKAHYGGFTVQNEANKYQISVNKYRGTAGNALMDGASQLMGENRTMTIHNGMFFSTYDRDNDGWLTSDPRKQCSKEDGGGWWYNRCHAANPNGRYYWGGQYTWDMAKHGTDDGVVWMNWKGSWYSMRKMSMKIRPFFPQQ
chain 3: KMLEEIMKYEASILTHDSSIRYLQEIYNSNNQKIVNLKEKVAQLEAQCQEPCKDTVQIHDITGKDCQDIANKGAKQSGLYFIKPLKANQQFLVYCEIDGSGNGWTVFQKRLDGSVDFKKNWIQYKEGFGHLSPTGTTEFWLGNEKIHLISTQSAIPYALRVELEDWNGRTSTADYAMFKVGPEADKYRLTYAYFAGGDAGDAFDGFDFGDDPSDKFFTSHNGMQFSTWDNDNDKFEGNCAEQDGSGWWMNKCHAGHLNGVYYQGGTYSKASTPNGYDNGIIWATWKTRWYSMKKTTMKIIPFNRLTIGEGQQHHLGGAK
chain 4: GPRVVERHQSACKDSDWPFCSDEDWNYKCPSGCRMKGLIDEVNQDFTNRINKLKNSLFEYQK
chain 5: GHRPLDKKREEAPSLRPAPPPISGGGYRARPAKAAATQKKVERKAPDAGGCLHADPDLGVLCPTGCQLQEALLQQERPIRNSVDELNNNVEAVSQTSSSSFQYMYLLK
chain 6: YVATRDNCCILDERFGSYCPTTCGIADFLSTYQTKVDKDLQSLEDILHQVENKTSEVKQLIK
modifications: covalent γ-γ cross-linking between the D regions
In the case of B4, the dissociation constant (Kd) in assay [17] amounted to 1400 ± 400 nM.
